Experiment [1] has as its target Cyt1Aa E32Q activated toxin (Bacillus thuringiensis subsp. israelensis).
The target of experiment [2] is Cyt1Aa activated toxin, wild type (Bacillus thuringiensis subsp. israelensis) (UniProt P0A382). As to the kind of experiment: atomic force microscopy on supported lipid bilayers.
Experiment [3] has as its target Cyt1Aa Q168E activated toxin (Bacillus thuringiensis subsp. israelensis).
The target in experiment [4] is Cyt1Aa E45Q activated toxin (Bacillus thuringiensis subsp. israelensis).

A value given as a limit tells only on which side of the number the result lay.

In experiment [1], “Cyt1Aa E32Q activated toxin (domain or fragment)” returned a fold reduction of cytotoxicity on HEK293 cells against the WT toxin of 2.4 fold. For orientation: stoichiometry N means the number of molecules, sites or subunits per partner or assembly. “Cyt1Aa activated toxin, wild type (from UniProt P0A382 1-249) (domain or fragment)”: the stoichiometry N in experiment [2] is 56.

Regarding “Cyt1Aa Q168E activated toxin (domain or fragment)”, in experiment [3], the cytotoxicity on HEK293 cells (LC50) is greater than 30 µM. In turn, “Cyt1Aa E45Q activated toxin (domain or fragment)” showed a fold reduction of cytotoxicity on HEK293 cells against the WT toxin in experiment [4] of 14 fold.
